{"source": "patent US20130209454A1", "binders": {"B1": {"name": "NIH45-46^G54W (antibody, V domains shown)", "VH": "QVRLSQSGGQMKKPGESMRLSCRASGYEFLNCPINWIRLAPGRRPEWMGWLKPRWGAVNYARKFQGRVTMTRDVYSDTAFLELRSLTSDDTAVYFCTRGKYCTARDYYNWDFEHWGRGAPVTVSS", "VL": "EIVLTQSPATLSLSPGETAIISCRTSQSGSLAWYQQRPGQAPRLVIYSGSTRAAGIPDRFSGSRWGADYNLSISNLESGDFGVYYCQQYEFFGQGTKVQVDI"}}, "assay_in_all_cases": "cell-based or functional assay", "key": {"[1]": {"molecular_target": "Env of HIV-1 strain CNE17 (HIV-1)"}, "[2]": {"molecular_target": "HIV-1 Env of strain 1054_07_TC4_1499 (HIV-1)"}, "[3]": {"molecular_target": "Env of HIV-1 strain CNE21 (HIV-1)"}, "[4]": {"molecular_target": "Env of HIV-1 strain 6540.v4.c1 (HIV-1)"}, "[5]": {"molecular_target": "HIV-1 Env of strain 191084 B7-19 (HIV-1)"}, "[6]": {"molecular_target": "HIV-1 Env of strain CNE53 (HIV-1)"}, "[7]": {"molecular_target": "HIV-1 Env of strain BF1266.431a (HIV-1)"}, "[8]": {"molecular_target": "HIV-1 Env of strain 246F C1G (HIV-1)"}, "[9]": {"molecular_target": "Env of HIV-1 strain Ce703010054_2A2 (HIV-1)"}, "[10]": {"molecular_target": "Env of HIV-1 strain 620345.c01 (HIV-1)"}, "[11]": {"molecular_target": "HIV-1 Env of strain BJOX028000.10.3 (HIV-1)"}, "[12]": {"molecular_target": "Env of HIV-1 strain ZM233M.PB6 (HIV-1)"}, "[13]": {"molecular_target": "Env of HIV-1 strain BJOX010000.06.2 (HIV-1)"}, "[14]": {"molecular_target": "Env of HIV-1 strain HIV-16845-2.22 (HIV-1)"}, "[15]": {"molecular_target": "HIV-1 Env of strain BJOX009000.02.4 (HIV-1)"}, "[16]": {"molecular_target": "HIV-1 Env of strain X1193_c1 (HIV-1)"}, "[17]": {"molecular_target": "HIV-1 Env of strain 3365.v2.c2 (HIV-1)"}, "[18]": {"molecular_target": "HIV-1 Env of strain PVO.4 (HIV-1)"}, "[19]": {"molecular_target": "HIV-1 Env of strain CAP210.2.00.E8 (HIV-1)"}, "[20]": {"molecular_target": "Env of HIV-1 strain 6811.v7.c18 (HIV-1)"}, "[21]": {"molecular_target": "HIV-1 Env of strain CAP45.2.00.G3 (HIV-1)"}, "[22]": {"molecular_target": "Env of HIV-1 strain 89-F1_2_25 (HIV-1)"}, "[23]": {"molecular_target": "Env of HIV-1 strain ZM249M.PL1 (HIV-1)"}, "[24]": {"molecular_target": "Env of HIV-1 strain C2101.c01 (HIV-1)"}, "[25]": {"molecular_target": "Env of HIV-1 strain ZM135M.PL10a (HIV-1)"}, "[26]": {"molecular_target": "Env of HIV-1 strain Ce704809221_1B3 (HIV-1)"}, "[27]": {"molecular_target": "Env of HIV-1 strain 211-9 (HIV-1)"}, "[28]": {"molecular_target": "Env of HIV-1 strain ZM109F.PB4 (HIV-1)"}, "[29]": {"molecular_target": "Env of HIV-1 strain X2088_c9 (HIV-1)"}, "[30]": {"molecular_target": "Env of HIV-1 strain TRJO4551.58 (HIV-1)"}, "[31]": {"molecular_target": "HIV-1 Env of strain 3016.v5.c45 (HIV-1)"}, "[32]": {"molecular_target": "Env of HIV-1 strain RHPA4259.7 (HIV-1)"}, "[33]": {"molecular_target": "Env of HIV-1 strain Q259.d2.17 (HIV-1)"}, "[34]": {"molecular_target": "Env of HIV-1 strain R1166.c01 (HIV-1)"}, "[35]": {"molecular_target": "Env of HIV-1 strain BJOX015000.11.5 (HIV-1)"}, "[36]": {"molecular_target": "Env of HIV-1 strain X1254_c3 (HIV-1)"}, "[37]": {"molecular_target": "HIV-1 Env of strain CNE21 (HIV-1)"}, "[38]": {"molecular_target": "HIV-1 Env of strain CNE19 (HIV-1)"}, "[39]": {"molecular_target": "HIV-1 Env of strain ZM197M.PB7 (HIV-1)"}, "[40]": {"molecular_target": "Env of HIV-1 strain 6545.v4.c1 (HIV-1)"}, "[41]": {"molecular_target": "HIV-1 Env of strain X1254_c3 (HIV-1)"}}, "data": [{"binder": "B1", "values": [{"measurement": "IC80", "setting": "[1]", "value": 0.127, "unit": "µg/mL"}, {"measurement": "IC50, pseudovirus neutralization", "setting": "[2]", "value": 0.04, "unit": "µg/mL"}, {"measurement": "IC80", "setting": "[3]", "value": 0.16, "unit": "µg/mL"}, {"measurement": "IC80", "setting": "[4]", "value": "> 50", "unit": "µg/mL"}, {"measurement": "IC50, pseudovirus neutralization", "setting": "[5]", "value": 0.001, "unit": "µg/mL"}, {"measurement": "IC50, pseudovirus neutralization", "setting": "[6]", "value": 0.001, "unit": "µg/mL"}, {"measurement": "IC50, pseudovirus neutralization", "setting": "[7]", "value": 0.001, "unit": "µg/mL"}, {"measurement": "IC50, pseudovirus neutralization", "setting": "[8]", "value": 0.315, "unit": "µg/mL"}, {"measurement": "IC80", "setting": "[9]", "value": 0.077, "unit": "µg/mL"}, {"measurement": "IC80", "setting": "[10]", "value": "> 50", "unit": "µg/mL"}, {"measurement": "IC50, pseudovirus neutralization", "setting": "[11]", "value": 0.001, "unit": "µg/mL"}, {"measurement": "IC80", "setting": "[12]", "value": 0.11, "unit": "µg/mL"}, {"measurement": "IC80", "setting": "[13]", "value": 4.5, "unit": "µg/mL"}, {"measurement": "IC80", "setting": "[14]", "value": 2.1, "unit": "µg/mL"}, {"measurement": "IC50, pseudovirus neutralization", "setting": "[15]", "value": 0.132, "unit": "µg/mL"}, {"measurement": "IC50, pseudovirus neutralization", "setting": "[16]", "value": 0.001, "unit": "µg/mL"}, {"measurement": "IC50, pseudovirus neutralization", "setting": "[17]", "value": 0.01, "unit": "µg/mL"}, {"measurement": "IC50, pseudovirus neutralization", "setting": "[18]", "value": 0.05, "unit": "µg/mL"}, {"measurement": "IC50, pseudovirus neutralization", "setting": "[19]", "value": "> 50", "unit": "µg/mL"}, {"measurement": "IC80", "setting": "[20]", "value": 0.033, "unit": "µg/mL"}, {"measurement": "IC50, pseudovirus neutralization", "setting": "[21]", "value": 32.2, "unit": "µg/mL"}, {"measurement": "IC80", "setting": "[22]", "value": "> 50", "unit": "µg/mL"}, {"measurement": "IC80", "setting": "[23]", "value": 0.007, "unit": "µg/mL"}, {"measurement": "IC80", "setting": "[24]", "value": 0.17, "unit": "µg/mL"}, {"measurement": "IC80", "setting": "[25]", "value": 0.16, "unit": "µg/mL"}, {"measurement": "IC80", "setting": "[26]", "value": 0.21, "unit": "µg/mL"}, {"measurement": "IC80", "setting": "[27]", "value": "> 50", "unit": "µg/mL"}, {"measurement": "IC80", "setting": "[28]", "value": 0.07, "unit": "µg/mL"}, {"measurement": "IC80", "setting": "[29]", "value": "> 50", "unit": "µg/mL"}, {"measurement": "IC80", "setting": "[30]", "value": 0.05, "unit": "µg/mL"}, {"measurement": "IC50, pseudovirus neutralization", "setting": "[31]", "value": 1.47, "unit": "µg/mL"}, {"measurement": "IC80", "setting": "[32]", "value": 0.007, "unit": "µg/mL"}, {"measurement": "IC80", "setting": "[33]", "value": 0.014, "unit": "µg/mL"}, {"measurement": "IC80", "setting": "[34]", "value": 0.51, "unit": "µg/mL"}, {"measurement": "IC80", "setting": "[35]", "value": 0.239, "unit": "µg/mL"}, {"measurement": "IC80", "setting": "[36]", "value": 0.018, "unit": "µg/mL"}, {"measurement": "IC50, pseudovirus neutralization", "setting": "[37]", "value": 0.03, "unit": "µg/mL"}, {"measurement": "IC50, pseudovirus neutralization", "setting": "[38]", "value": 0.002, "unit": "µg/mL"}, {"measurement": "IC50, pseudovirus neutralization", "setting": "[39]", "value": 0.04, "unit": "µg/mL"}, {"measurement": "IC80", "setting": "[40]", "value": "> 50", "unit": "µg/mL"}, {"measurement": "IC50, pseudovirus neutralization", "setting": "[41]", "value": 0.002, "unit": "µg/mL"}]}]}
